The text below walks through data of US10751422B2, “Antibody drug conjugates (ADC) that bind to FLT3 proteins” (AGENSYS, INC., priority 2015, dated 2020).

For one data set, the system named is Raji. In words: ADCC activity in vitro (CytoTox 96 LDH assay), positive control cell line Raji. It is filed as cell-based. The settings on record: effector normal human PBMC, E:T=100:1, 2.5 ug/mL, 4 hours.
Another data set relates to EOL-1. In words: EOL-1 cell growth with human FLT3 ligand and antibody (Cell Titer Glo, 5 days). Format: cell-based. The settings on record: 50, 10 or 5 ng/mL, no antibody. The protocol: The ability of FLT3 antibodies (CHv62.21 and v62-1b37.1) to mediate the effect of human FLT3 ligand was evaluated using the human leukemia EOL-1 cell line, which endogenously expresses FLT3. Isotype control antibody (mLys-1c3.1) was also used. […] The next day, cells were treated with 50, 10 or 5 ng/mL of human FLT3 ligand (in 25 μl of complete media) and 10, 1, 0.1 and 0 μg/mL of test antibody (in 25 μl of complete media). Media alone was used as the untreated control. […] At the end of the incubation period, 100 μl of Cell Titer Glo was added to each well and incubated for 30 minutes, shaking, at room temperature.
A general note: ATP-based viability assays read luminescence as a measure of living cells.

The next data set has as its target Flt3 protein (Homo sapiens, UniProt P36888). The data set is described as follows: Binding of hybridoma MAb to Flt3 protein and Flt3 expressing cells. The settings on record: recombinant and endogenous cells. From the text:
MAbs to FLT3 were generated using VelocImmune® technology (Regeneron, Tarrytown, N.Y.) wherein genetically engineered mice make antibodies that have fully human variable regions and mouse constant regions. The MAb designated v62-1b21 (also known as AGS62.21) was generated after immunizing VelocImmune® mice with recombinant human FLT3 protein.

The test system of the next data set is RS-4-11. It is filed as cell-based, human.

Procedure for RS-4-11: Briefly, The RS-4-11 cells were seeded in 50 μl of complete media at a density of 3000 cells per well onto 96 well plates and placed in a tissue culture incubator at 37° C.; 5% CO2. The next day, the ADCs were prepared in complete media at 10 μg/mL and serially diluted 1:5 for a total of 9 points. […] At the end of the incubation period, 20 μl of Presto Blue was added to each well and incubated for 2 hours. The plates were read using a BioTek Synergy H4 plate reader using 540 Excitation and 590 Emission wavelengths and graphed using Graphpad Prism software.

Regarding Rituximab, the ADCC activity entry with Raji is reported as “confirms ADCC activity”.

B1: Human FLT3 ligand: human FLT3 ligand, purchased from R and D Systems (protein)
chain: TQDCSFQHSPISSDFAVKIRELSDYLLQDYPVTVASNLQDEELCGGLWRLVLAQRWMERLKTVAGSKMQGLLERVNTEIHFVTKCAFQPPPSCLRFVQTNISRLLQETSEQLVALKPWITRQNFSRCLELQCQPDSSTLPPPWSPRPLEATAPTAPQPP
On to B1, for which the “effect of human FLT3 ligand alone on growth of EOL-1 cells” value in the data set with EOL-1 is given as “has no effect on growth”.

B2: v62-1b21: hybridoma FLT3 MAb from VelocImmune mice, fully human variable regions and mouse constant regions (antibody, V domains shown)
VH: EVQLVESGGGLVRPGGSLRLSCAASGFTFSGYSINWVRQAPGKGLEWVSSISSSSNYIYYADSVKGRFTISRDNAKNSLYLQMNSLRAEDTAVYYCAREGFIAGTTFDAFDIWGQGTMVTVSS
VL: DIQMTQSPSSLSASVGDRVTITCRASQGIRNDLGWYQQKPGKAPKRLIYAASSLQSGVPSRFSGSGSGTEFTLTISSLQPEDFATYYCLQHNGFPYTFGQGTKLEIKR
Turning to B2, the “binding to Flt3 protein and Flt3 expressing cells” value in the data set with Flt3 protein was “specifically binds to Flt3 protein and Flt3 expressing cells”.

B3: v62-1b21.1-AGL-0129-08 (conjugate)
VH: EVQLVESGGGLVRPGGSLRLSCAASGFTFSGYSINWVRQAPGKGLEWVSSISSSSNYIYYADSVKGRFTISRDNAKNSLYLQMNSLRAEDTAVYYCAREGFIAGTTFDAFDIWGQGTMVTVSS
VL: DIQMTQSPSSLSASVGDRVTITCRASQGIRNDLGWYQQKPGKAPKRLIYAASSLQSGVPSRFSGSGSGTEFTLTISSLQPEDFATYYCLQHNGFPYTFGQGTKLEIKR
Take B3: the cytotoxicity entry in the data set on RS-4-11 was “can induce cytotoxicity”.
